Paper PMC10003157, “Structurally Different Yet Functionally Similar: Aptamers Specific for the Ebola Virus Soluble Glycoprotein and GP1,2 and Their Application in Electrochemical Sensing”

Legend:
[1] = molecular target: T1, EBOV sGP (Zaire ebolavirus (EBOV), UniProt P60170); test: filter binding; details: protein: recombinant; tags: C-terminal thrombin site + 6xHis; chain copies: 2; label: 5' 32P
[2] = molecular target: T2, SUDV sGP (Sudan virus (SUDV), UniProt Q7T9E0 33-324); test: filter binding; details: protein: commercial; chain copies: 2; label: 5' 32P
T2 sequence: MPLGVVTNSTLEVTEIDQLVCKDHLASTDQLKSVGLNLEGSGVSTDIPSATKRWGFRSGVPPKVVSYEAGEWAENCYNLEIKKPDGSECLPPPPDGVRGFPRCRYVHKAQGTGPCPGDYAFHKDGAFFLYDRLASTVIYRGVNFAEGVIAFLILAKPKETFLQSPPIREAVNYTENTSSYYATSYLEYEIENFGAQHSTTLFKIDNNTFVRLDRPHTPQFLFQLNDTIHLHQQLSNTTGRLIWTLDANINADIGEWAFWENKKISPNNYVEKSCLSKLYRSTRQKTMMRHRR

[3] = molecular target: T3, His-Lcn2 (mouse, UniProt P11672 21-200); test: filter binding; Nitrocellulose filter capture in PBS at 23-24 C (NA53 in NBB); EIS sensor in PBS with or without 10% serum; details: protein: recombinant; tags: His; label: 5' 32P
T3 sequence: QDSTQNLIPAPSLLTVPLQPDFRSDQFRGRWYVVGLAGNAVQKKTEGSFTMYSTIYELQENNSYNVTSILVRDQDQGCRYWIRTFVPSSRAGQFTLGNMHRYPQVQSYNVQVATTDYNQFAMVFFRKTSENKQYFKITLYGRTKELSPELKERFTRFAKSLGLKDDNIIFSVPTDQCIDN

[4] = molecular target: T1, EBOV sGP; test: electrochemical impedance (NAAO sensor); 10% human serum; details: protein: recombinant; tags: C-terminal thrombin site + 6xHis; chain copies: 2
[5] = molecular target: T2, SUDV sGP; test: electrochemical impedance (NAAO sensor); PBS; same affinity as EBOV sGP; details: protein: commercial; chain copies: 2
[6] = molecular target: NGAL (human, UniProt P80188 21-198); test: filter binding; with or without 10 mM DTT, no effect; NBB buffer; details: protein: recombinant; label: 32P

B1: 70SGP2A (ssDNA)
DNA: GCCTGTTGTGAGCCTCCTGTCGAACAACCACTCATATCTACTACATGACTTGCTCCATTCTGTTCTTTCT
**Q.** Which Kd [1] does the source give for B1 here?
**A.** 27 ± 15 nM

B2: 6020 (ssDNA)
DNA: GCCTGTTGTGAGCCTCCTGTCGAACATACCGTTCCACCCACATTTCAACCTTCATCCATCCTATTATTAGCCCACTCTTGAGCGTTTATTCTTGTCTCCC
**Q.** Does B2 bind [1]?
**A.** no binding

B3: 6022 (ssDNA)
DNA: GCCTGTTGTGAGCCTCCTGTCGAACCCTATCTTGTTCATGCTATTCTCAATATTTTCGGTTCACTTACCGTCTGCCTTTGAGCGTTTATTCTTGTCTCCC
**Q.** B3 was tested. Which Kd [1] did it give?
**A.** ~23 nM

B4: 6012 (ssDNA)
DNA: GCCTGTTGTGAGCCTCCTGTCGAACGTATTTCTTGCTTCCTTCCTTGCCGCGCACATTGCAGTATAAGTACCTGTCGTTGAGCGTTTATTCTTGTCTCCC
**Q.** What does the source list for B4?
**A.** Kd [1]: 27 ± 12 nM; Kd [2]: 151 ± 44 nM

B5: 6011 (ssDNA)
DNA: GCCTGTTGTGAGCCTCCTGTCGAACAACCACTCATATCTACTACATGACTTGCTCCATTCTGTTCTTTCTCTACGCATTGAGCGTTTATTCTTGTCTCCC
**Q.** Does B5 bind [3]?
**A.** no binding

**Q.** What about the Kd [1] of the same binder?
**A.** 8.5 ± 3.2 nM

**Q.** What about the Kd [2] of the same binder?
**A.** 165 ± 44 nM

B6: 5'thio-6011 (ssDNA)
DNA: B5 DNA
modifications: 5' thiol
**Q.** With B6 as the binder, how does the Kd [4] read?
**A.** 2.2 ± 0.75 nM

**Q.** Does B6 bind [5]?
**A.** binds

B7: NA53 (ssDNA)
DNA: AGCAGCACAGAGGTCAGATGCCGTGCGGATGTACAGGGACTTGGATAGTTTCTGACCTATGCGTGCTACCGTGAA
**Q.** Does B7 bind [6]?
**A.** binds
